# B1: Mothers against decapentaplegic homolog 4 (Homo sapiens), Q13485 (parent)
# chain: MDNMSITNTPTSNDACLSIVHSLMCHRQGGESETFAKRAIESLVKKLKEKKDELDSLITAITTNGAHPSKCVTIQRTLDGRLQVAGRKGFPHVIYARLWRWPDLHKNELKHVKYCQYAFDLKCDSVCVNPYHYERVVSPGIDLSGLTLQSNAPSSMMVKDEYVHDFEGQPSLSTEGHSIQTIQHPPSNRASTETYSTPALLAPSESNATSTANFPNIPVASTSQPASILGGSHSEGLLQIASGPQPGQQQNGFTGQPATYHHNSTTTWTGSRTAPYTPNLPHHQNGHLQHHPPMPPHPGHYWPVHNELAFQPPISNHPAPEYWCSIAYFEMDVQVGETFKVPSSCPIVTVDGYVDPSGGDRFCLGQLSNVHRTEAIERARLHIGKGVQLECKGEGDVWVRCLSDHAVFVQSYYLDREAGRAPGDAVHKIYPSAYIKVFDLRQCHRQMQQQAATAQAAAAAQAAAVAGNIPGPGSVGGIAPAISLSAAAGIGVDDLRRLCILRMSFVKGWGPDYPRQSIKETPCWIEIHLHRALQLLDEVLHTMPIADPQPLD
# partner: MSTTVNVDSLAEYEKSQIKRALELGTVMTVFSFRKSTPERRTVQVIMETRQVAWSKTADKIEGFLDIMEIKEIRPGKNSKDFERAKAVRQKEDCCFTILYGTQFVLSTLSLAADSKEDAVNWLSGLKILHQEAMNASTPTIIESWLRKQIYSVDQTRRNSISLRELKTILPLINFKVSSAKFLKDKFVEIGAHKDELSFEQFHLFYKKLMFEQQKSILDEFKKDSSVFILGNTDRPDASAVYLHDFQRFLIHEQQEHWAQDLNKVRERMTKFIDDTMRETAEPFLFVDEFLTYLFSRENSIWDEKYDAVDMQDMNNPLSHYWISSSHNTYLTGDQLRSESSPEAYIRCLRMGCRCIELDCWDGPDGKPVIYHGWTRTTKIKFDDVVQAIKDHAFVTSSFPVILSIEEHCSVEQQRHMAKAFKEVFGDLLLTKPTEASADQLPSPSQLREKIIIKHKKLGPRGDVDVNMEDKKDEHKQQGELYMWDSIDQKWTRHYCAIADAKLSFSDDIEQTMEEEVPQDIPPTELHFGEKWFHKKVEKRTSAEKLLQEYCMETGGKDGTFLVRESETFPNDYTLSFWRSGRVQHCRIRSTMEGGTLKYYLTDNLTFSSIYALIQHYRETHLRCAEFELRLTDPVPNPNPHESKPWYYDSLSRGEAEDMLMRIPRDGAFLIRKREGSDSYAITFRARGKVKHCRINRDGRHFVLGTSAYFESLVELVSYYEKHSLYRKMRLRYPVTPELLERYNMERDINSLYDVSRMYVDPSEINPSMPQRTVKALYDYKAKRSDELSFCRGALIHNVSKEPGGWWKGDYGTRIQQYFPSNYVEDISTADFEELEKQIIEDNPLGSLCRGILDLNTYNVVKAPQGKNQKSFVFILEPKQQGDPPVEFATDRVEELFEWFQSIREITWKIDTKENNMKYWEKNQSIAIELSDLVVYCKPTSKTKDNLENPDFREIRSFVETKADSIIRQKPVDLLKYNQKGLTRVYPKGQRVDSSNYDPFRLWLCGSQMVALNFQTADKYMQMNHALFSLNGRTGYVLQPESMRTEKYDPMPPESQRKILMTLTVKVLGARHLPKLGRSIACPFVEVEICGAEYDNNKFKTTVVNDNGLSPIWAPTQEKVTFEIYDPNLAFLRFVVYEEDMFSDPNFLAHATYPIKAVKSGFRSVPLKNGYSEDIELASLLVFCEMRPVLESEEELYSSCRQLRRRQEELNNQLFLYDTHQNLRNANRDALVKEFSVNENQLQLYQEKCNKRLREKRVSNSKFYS
# B2: Mothers against decapentaplegic homolog 4 (Homo sapiens), Q13485 (parent)
# chain: B1 chain
# partner: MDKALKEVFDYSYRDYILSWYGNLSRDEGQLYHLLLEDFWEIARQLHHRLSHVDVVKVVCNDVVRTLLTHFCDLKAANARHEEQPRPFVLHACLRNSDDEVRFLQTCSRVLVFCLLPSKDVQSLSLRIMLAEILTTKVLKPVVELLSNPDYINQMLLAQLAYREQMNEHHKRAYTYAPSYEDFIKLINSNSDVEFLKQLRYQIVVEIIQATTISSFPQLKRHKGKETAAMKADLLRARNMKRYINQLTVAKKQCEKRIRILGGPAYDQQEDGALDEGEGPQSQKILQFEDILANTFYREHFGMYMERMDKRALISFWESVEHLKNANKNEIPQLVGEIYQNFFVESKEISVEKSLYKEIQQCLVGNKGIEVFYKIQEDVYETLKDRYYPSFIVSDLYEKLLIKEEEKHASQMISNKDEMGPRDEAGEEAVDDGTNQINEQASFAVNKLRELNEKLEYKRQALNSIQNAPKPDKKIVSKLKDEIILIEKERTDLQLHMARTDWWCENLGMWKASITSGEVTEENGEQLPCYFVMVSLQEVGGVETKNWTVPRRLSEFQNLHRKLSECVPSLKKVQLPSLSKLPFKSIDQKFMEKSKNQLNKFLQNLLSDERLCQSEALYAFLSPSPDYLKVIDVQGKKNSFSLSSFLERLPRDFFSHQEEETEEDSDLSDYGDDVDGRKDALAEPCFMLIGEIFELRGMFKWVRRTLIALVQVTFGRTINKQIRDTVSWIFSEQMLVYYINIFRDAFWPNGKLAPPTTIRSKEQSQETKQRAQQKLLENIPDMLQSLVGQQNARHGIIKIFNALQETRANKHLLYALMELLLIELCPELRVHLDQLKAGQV
# B3: Mothers against decapentaplegic homolog 4 (Homo sapiens), Q13485 (parent)
# chain: B1 chain
# partner: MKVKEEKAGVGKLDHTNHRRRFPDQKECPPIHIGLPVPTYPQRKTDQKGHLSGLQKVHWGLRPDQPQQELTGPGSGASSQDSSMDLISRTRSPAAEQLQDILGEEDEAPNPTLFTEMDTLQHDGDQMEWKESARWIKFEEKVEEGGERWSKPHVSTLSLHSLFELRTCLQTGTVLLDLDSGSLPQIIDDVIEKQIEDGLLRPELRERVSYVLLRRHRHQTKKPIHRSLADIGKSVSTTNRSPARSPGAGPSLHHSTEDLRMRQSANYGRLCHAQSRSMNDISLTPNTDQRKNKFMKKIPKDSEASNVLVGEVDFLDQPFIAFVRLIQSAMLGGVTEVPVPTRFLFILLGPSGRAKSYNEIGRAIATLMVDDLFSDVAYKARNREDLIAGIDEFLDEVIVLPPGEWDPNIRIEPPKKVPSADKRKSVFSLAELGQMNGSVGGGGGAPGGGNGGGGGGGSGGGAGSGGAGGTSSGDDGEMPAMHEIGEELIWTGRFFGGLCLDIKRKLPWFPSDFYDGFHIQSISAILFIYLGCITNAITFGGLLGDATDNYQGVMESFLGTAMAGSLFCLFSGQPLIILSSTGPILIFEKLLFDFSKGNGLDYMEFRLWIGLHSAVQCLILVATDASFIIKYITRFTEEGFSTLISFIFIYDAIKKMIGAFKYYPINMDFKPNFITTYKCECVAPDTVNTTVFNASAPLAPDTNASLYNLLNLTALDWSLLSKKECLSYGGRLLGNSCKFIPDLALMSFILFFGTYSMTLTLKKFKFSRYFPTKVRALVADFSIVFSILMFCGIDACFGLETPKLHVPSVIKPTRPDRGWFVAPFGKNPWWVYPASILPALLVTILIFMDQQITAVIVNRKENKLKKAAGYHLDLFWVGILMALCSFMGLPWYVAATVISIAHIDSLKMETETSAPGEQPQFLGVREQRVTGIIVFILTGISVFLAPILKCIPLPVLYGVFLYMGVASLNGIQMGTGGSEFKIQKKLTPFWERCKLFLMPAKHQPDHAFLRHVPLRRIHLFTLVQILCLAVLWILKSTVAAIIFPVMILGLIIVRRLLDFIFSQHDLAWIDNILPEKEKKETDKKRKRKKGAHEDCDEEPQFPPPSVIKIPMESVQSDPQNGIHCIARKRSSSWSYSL
# B4: Mothers against decapentaplegic homolog 4 (Homo sapiens), Q13485 (parent)
# chain: B1 chain
# partner: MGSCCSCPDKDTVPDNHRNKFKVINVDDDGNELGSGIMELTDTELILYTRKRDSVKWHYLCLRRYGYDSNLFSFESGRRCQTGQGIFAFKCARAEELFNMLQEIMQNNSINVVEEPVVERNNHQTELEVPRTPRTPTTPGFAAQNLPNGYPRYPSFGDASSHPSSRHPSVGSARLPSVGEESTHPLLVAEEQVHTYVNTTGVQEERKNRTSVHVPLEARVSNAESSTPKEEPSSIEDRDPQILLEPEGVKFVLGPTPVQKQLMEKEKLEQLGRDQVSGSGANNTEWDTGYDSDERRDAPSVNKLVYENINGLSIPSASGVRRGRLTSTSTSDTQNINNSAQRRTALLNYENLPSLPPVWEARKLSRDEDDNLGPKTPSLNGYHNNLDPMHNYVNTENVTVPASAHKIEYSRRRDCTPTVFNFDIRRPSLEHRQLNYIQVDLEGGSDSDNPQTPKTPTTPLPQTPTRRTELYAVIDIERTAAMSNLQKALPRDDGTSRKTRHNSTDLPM
# B5: Mothers against decapentaplegic homolog 4 (Homo sapiens), Q13485 (parent)
# chain: B1 chain
# partner: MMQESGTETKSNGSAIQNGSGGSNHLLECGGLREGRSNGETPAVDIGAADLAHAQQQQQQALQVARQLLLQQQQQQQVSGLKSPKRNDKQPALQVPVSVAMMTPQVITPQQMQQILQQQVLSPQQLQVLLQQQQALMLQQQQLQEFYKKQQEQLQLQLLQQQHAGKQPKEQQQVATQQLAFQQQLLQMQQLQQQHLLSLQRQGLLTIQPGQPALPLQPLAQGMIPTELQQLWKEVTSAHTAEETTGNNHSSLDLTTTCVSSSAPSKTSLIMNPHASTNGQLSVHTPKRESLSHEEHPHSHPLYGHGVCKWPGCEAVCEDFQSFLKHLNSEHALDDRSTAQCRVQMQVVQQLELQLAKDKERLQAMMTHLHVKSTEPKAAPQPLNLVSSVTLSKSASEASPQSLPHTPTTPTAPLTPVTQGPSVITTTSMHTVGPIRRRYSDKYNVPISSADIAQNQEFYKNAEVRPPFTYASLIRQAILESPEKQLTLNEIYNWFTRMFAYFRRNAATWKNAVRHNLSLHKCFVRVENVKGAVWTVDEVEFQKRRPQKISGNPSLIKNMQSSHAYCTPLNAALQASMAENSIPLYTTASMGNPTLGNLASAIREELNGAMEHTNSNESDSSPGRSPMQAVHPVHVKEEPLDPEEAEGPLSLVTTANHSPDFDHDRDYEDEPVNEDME
# B6: Mothers against decapentaplegic homolog 4 (Homo sapiens), Q13485 (parent)
# chain: B1 chain
# partner: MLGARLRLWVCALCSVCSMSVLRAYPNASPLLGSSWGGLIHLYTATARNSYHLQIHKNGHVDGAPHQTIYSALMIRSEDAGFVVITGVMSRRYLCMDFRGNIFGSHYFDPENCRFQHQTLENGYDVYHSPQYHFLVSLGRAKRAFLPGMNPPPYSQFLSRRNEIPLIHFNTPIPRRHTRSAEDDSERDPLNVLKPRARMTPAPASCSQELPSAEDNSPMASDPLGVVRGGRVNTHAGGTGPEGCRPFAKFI
# Variants of: B1
# Details: with plcg2_human PLCG2, P16885
row,Variant,effect of a mutation on the interaction
1,R361C,with no effect

# Variants of: B2
# Details: with snx25_human SNX25, Q9H3E2
row,Variant,effect of a mutation on the interaction
1,R361H,with no effect

# Variants of: B2
# Details: with snx25_human SNX25, Q9H3E2
# Remark: another data set of the same source
row,Variant,effect of a mutation on the interaction
1,G386D,with no effect

# Variants of: B3
# Details: with s4a5_human SLC4A5, Q9BY07
row,Variant,effect of a mutation on the interaction
1,G386D,with no effect

# Variants of: B3
# Details: with s4a5_human SLC4A5, Q9BY07
# Remark: another data set of the same source
row,Variant,effect of a mutation on the interaction
1,R361C,with no effect

# Variants of: B4
# Details: with frs2_human FRS2, Q8WU20
row,Variant,effect of a mutation on the interaction
1,R361C,with no effect

# Variants of: B4
# Details: with frs2_human FRS2, Q8WU20
# Remark: another data set of the same source
row,Variant,effect of a mutation on the interaction
1,R361H,with no effect

# Variants of: B5
# Details: with foxp1_human FOXP1, Q9H334
row,Variant,effect of a mutation on the interaction
1,G386D,with no effect

# Variants of: B6
# Details: with fgf23_human FGF23, Q9GZV9
row,Variant,effect of a mutation on the interaction
1,G386D,with no effect

# Variants of: B6
# Details: with fgf23_human FGF23, Q9GZV9
# Remark: another data set of the same source
row,Variant,effect of a mutation on the interaction
1,G386D,increasing interaction strength

# From IntAct's records for PubMed 35512704
